Source: publication PMC4664897, “Neurodegenerative disease-associated mutants of a human mitochondrial aminoacyl-tRNA synthetase present individual molecular signatures” (Scientific Reports, 2015)
Numbering of substitutions follows the chain as printed. Names may count otherwise.

B1: wild-type human mitochondrial aspartyl-tRNA synthetase (mt-AspRS) (enzyme)
chain: IPEFSSFVVRTNTCGELRSSHLGQEVTLCGWIQYRRQNTFLVLRDFDGLVQVIIPQDESAASVKKILCEAPVESVVQVSGTVISRPAGQENPKMPTGEIEIKVKTAELLNACKKLPFEIKNFVKKTEALRLQYRYLDLRSFQMQYNLRLRSQMVMKMREYLCNLHGFVDIETPTLFKRTPGGAKEFLVPSREPGKFYSLPQSPQQFKQLLMVGGLDRYFQVARCYRDEGSRPDRQPEFTQIDIEMSFVDQTGIQSLIEGLLQYSWPNDKDPVVVPFPTMTFAEVLATYGTDKPDTRFGMKIIDISDVFRNTEIGFLQDALSKPHGTVKAICIPEGAKYLKRKDIESIRNFAADHFNQEILPVFLNANRNWNSPVANFIMESQRLELIRLMETQEEDVVLLTAGEHNKACSLLGKLRLECADLLETRGVVLRDPTLFSFLWVVDFPLFLPKEENPRELESAHHPFTAPHPSDIHLLYTEPKKARSQHYDLVLNGNEIGGGSIRIHNAELQRYILATLLKEDVKMLSHLLQALDYGAPPHGGIALGLDRLICLVTGSPSIRDVIAFPKSFRGHDLMSNTPDSVPPEELKPYHIRVSKPTDSKAERAHVMYLE
notes: human mitochondrial aspartyl-tRNA synthetase (DARS2), residues 41-645; linker of 5 residues before the C-terminal 6-His tag; Homodimer; also called WT; WT mt-AspRS; not shown: His6, C-terminal, kept
B2: human mt-AspRS mutant L613F (enzyme)
chain: B1 chain with L573F
notes: human mitochondrial aspartyl-tRNA synthetase (DARS2), residues 41-645, LBSL patient mutation 1837C>T (L613F); linker of 5 residues before the C-terminal 6-His tag; Mutation found in LBSL patients; not shown: His6, C-terminal, kept
B3: human mt-AspRS mutant L626Q (enzyme)
chain: B1 chain with L586Q
notes: human mitochondrial aspartyl-tRNA synthetase (DARS2), residues 41-645, LBSL patient mutation 1876T>A (printed as 626Q in the methods, L626Q elsewhere); linker of 5 residues before the C-terminal 6-His tag; Mutation found in LBSL patients; not shown: His6, C-terminal, kept
B4: human mt-AspRS mutant R58G (enzyme)
chain: B1 chain with R18G
notes: human mitochondrial aspartyl-tRNA synthetase (DARS2), residues 41-645, LBSL patient mutation 172C>G (R58G); linker of 5 residues before the C-terminal 6-His tag; Mutation found in LBSL patients; not shown: His6, C-terminal, kept
B5: human mt-AspRS mutant T136S (enzyme)
chain: B1 chain with T96S
notes: human mitochondrial aspartyl-tRNA synthetase (DARS2), residues 41-645, LBSL patient mutation 406A>T (T136S); linker of 5 residues before the C-terminal 6-His tag; Mutation found in LBSL patients; not shown: His6, C-terminal, kept

What was measured:
[1] = target: the molecule itself; assay: SEC + other: SAXS; HPLC-SEC (Agilent Bio SEC-3, 15 °C) directly upstream of the SAXS cell; WT, Q184K and R263Q loaded at 7.4, 10 and 14 mg/ml; mobile phase 100 mM HEPES-Na pH 7.5, 250 mM NaCl, 5% glycerol, 1 mM TCEP; oligomer from Rg and Porod volume of each peak
[2] = target: the molecule itself; assay: dynamic light scattering; 2 mg/ml in 100 mM potassium phosphate pH 7.5, 50 mM KCl, 0.1 mM EDTA, 10 mM β-mercaptoethanol, 10% glycerol, 20 °C; hydrodynamic diameter

| Protein | stoichiometry N [1] | stoichiometry N [2] |
| --- | --- | --- |
| B1 | 2 | – |
| B2 | – | 2 |
| B3 | – | 2 |
| B4 | – | 2 |
| B5 | – | 2 |
